From PMC9335211

Columns and labels:
[1] = molecular target: mouse E-cadherin full-length ectodomains, W2A mutant (mouse); test: high-speed atomic force microscopy
[2] = molecular target: full-length ectodomains (EC1 to EC5) of mouse E-cadherin, wild type (mouse); test: high-speed atomic force microscopy

Substance | share of the observed dimers that are S-shaped [1] [%] | share of the observed dimers that are cross-shaped (X-like dimer) [1] [%] | stoichiometry N [2]
mouse E-cadherin full-length ectodomains, W2A mutant (domain or fragment) | 45 | 20 | –
full-length ectodomains (EC1 to EC5) of mouse E-cadherin, wild type (domain or fragment) | – | – | 2
